Results on three molecules are retold here after patent US20200407442A1.

Like-named read-outs stand apart in the source and are kept apart here.

The target in assay [1] is mFc-tagged LAG-3 protein (human) (UniProt P18627). Description: ELISA competition: blocks mFc-tagged LAG-3 binding to coated LSECtin. (An ELISA detects its analyte on a solid surface through an enzyme-linked reagent.)
Assay [2] shares this target. Description: ELISA competition: blocks mFc-tagged LAG-3 binding to coated Galectin-3.
Assay [3] deals with full-length human LAG-3 on cells (human) (UniProt P18627). Description: FACS affinity on Flp-In-293 cells expressing human LAG-3.
Chain of full-length human LAG-3 on cells (human) (P18627 23-525 limits assumed): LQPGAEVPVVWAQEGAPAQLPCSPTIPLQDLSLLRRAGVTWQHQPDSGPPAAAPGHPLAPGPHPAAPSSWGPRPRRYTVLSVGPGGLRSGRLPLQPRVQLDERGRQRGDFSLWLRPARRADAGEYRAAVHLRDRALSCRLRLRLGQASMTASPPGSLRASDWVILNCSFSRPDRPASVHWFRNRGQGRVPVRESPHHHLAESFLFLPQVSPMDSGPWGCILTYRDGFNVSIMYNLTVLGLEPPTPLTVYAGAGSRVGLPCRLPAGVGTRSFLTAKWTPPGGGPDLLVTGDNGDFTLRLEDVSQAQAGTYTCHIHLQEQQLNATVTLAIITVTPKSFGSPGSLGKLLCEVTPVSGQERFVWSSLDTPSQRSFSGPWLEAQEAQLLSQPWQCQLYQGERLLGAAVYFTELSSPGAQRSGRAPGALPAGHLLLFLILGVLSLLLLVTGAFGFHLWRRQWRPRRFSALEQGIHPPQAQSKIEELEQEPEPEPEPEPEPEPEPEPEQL
Assay [4] shares this target. Description: FACS on human LAG-3 transfectant cells.
For assay [5], the target named is full-length cynomolgus LAG-3 on cells (cynomolgus). The assay is described as follows: FACS on cynomolgus LAG-3-expressing 293F cells (target not labelled in the table).
Target sequence in this assay (P18627 other isoform, or with tags, fused parts or gaps limits assumed, form in doubt): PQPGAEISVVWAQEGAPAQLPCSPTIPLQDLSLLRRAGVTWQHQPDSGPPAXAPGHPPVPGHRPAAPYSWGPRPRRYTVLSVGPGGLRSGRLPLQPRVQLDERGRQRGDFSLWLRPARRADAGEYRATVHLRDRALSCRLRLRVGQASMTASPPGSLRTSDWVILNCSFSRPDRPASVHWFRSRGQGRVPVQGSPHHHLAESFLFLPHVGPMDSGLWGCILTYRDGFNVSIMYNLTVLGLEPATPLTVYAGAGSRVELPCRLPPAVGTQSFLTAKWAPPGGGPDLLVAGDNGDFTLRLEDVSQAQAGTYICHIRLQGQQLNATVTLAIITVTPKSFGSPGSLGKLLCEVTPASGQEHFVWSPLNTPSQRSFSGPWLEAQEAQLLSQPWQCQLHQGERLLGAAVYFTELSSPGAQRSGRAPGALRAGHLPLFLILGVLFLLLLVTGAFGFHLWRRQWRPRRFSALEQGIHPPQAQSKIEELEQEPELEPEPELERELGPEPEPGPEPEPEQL
In assay [6] the target is full-length human LAG-3 on cells (human) (UniProt P18627). The assay is described as follows: cell-based or functional assay.
For assay [7], the target named is human LAG-3 protein (SPR analyte) (human) (UniProt P18627). The assay is described as follows: SPR Biacore 8K, antibody captured by anti-human Fc, LAG-3 as analyte. For orientation: SPR reads the build-up and loss of mass on a sensor chip optically.
Chain of human LAG-3 protein (SPR analyte) (human) (P18627 30-450 limits assumed): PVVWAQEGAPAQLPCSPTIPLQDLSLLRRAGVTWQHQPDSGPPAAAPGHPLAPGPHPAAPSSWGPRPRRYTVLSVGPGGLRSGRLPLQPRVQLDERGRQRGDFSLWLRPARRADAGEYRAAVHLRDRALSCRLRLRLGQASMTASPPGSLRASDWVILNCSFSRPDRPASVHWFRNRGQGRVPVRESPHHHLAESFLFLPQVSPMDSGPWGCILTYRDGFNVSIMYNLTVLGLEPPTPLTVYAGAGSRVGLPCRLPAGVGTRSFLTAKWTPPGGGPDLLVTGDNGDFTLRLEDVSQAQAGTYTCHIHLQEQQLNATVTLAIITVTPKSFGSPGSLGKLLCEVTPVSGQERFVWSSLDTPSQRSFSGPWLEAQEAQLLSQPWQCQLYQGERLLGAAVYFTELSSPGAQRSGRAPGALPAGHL
Assay [8] concerns the target mFc-tagged LAG-3 protein (human) (UniProt P18627). The assay is described as follows: FACS competition: blocks mFc-tagged LAG-3 binding to MHC-II on Raji cells.
For assay [9], the target named is full-length cynomolgus LAG-3 on cells (cynomolgus). Description: FACS on cynomolgus LAG-3-expressing 293F cells (target not labelled in the table). The source holds these as a separate data set.
Target sequence in this assay (P18627 other isoform, or with tags, fused parts or gaps limits assumed, form in doubt): as the sequence (P18627 other isoform, or with tags, fused parts or gaps limits assumed, form in doubt) above

Chain of mFc-tagged LAG-3 protein (human) (P18627 30-450): as the sequence (P18627 30-450 limits assumed) above

B1: BMK7 (antibody, INN chains, looked up, V domains shown)
VH: QVQLVESGGGVVQPGRSLRLSCVASGFTFSSYGMHWVRQAPGKGLEWVAIIWYDGSNKYYADSVKGRFTISRDNSKNTQYLQMNSLRAEDTAVYYCASVATSGDFDYYGMDVWGQGTTVTVSS
VL: EIVLTQSPATLSLSPGERTTLSCRASQRISTYLAWYQQKPGQAPRLLIYDASKRATGIPARFSGSGSGTGFTLTISSLEPEDFAVYYCQQRSNWPLTFGGGTKVEIK
For B1, the EC50 (in general, the midpoint of the concentration-response curve) was 0.59 nM in assay [1]; 0.79 nM in assay [2]; 0.61 nM in [4]; 2.65 nM in assay [5]; 1.25 nM in assay [8]. Further, the Kd (as a rule, the free concentration of one partner at which half of the binding sites on the other are occupied at equilibrium, for simple one-to-one binding) was 0.58 nM in [3] and 0.497 nM in assay [7]. Besides, the EC50, IL-2 luciferase reporter gene assay (Jurkat cells expressing human LAG-3 with Raji cells and SEE) in [6] was 2.65 nM. The koff (commonly a measure of how fast the partners let go of each other) in assay [7] is 0.000106 s⁻¹. Besides, the kon (in general, the rate constant with which the complex forms) in assay [7] stood at 213000 M⁻¹ s⁻¹.

B2: 1.53.3-uAb-IgG4k (antibody, V domains shown)
VH: QVQLQQWGAGLLKPSETLSLTCGVYGGSFSGYYWSWIRQPPGMGLEWIGEINHRGNTNYNPSLKSRVTISEDTSKNQFSLRLSSVTAADTAVYFCTRGEDYSDYDYYGDFWGQGTLVTVSS
VL: EIVLTQSPATLSLSQGERATLSCRASQSISSYLAWYQQKPGQAPRLLIYAASNRATGIPARFSGSGSGTDFTLTISSLEPEDFAIYYCQQRSNWPLTFGGGTKVEIK
In assay [9], B2 showed an EC50 of 4.01 nM.

B3: 3.40.19-uAb-IgG4L (antibody, V domains shown)
VH: QLQLQESGPGLVKPSETLSLTCTVSGDSISSTSYYWGWIRQPPGKGLEWIGSFYYSGSTYYNPSLKSRVTISVDTSKNQFSLKLNSVTAADTAVYYCARMQLWSYDVDVWGQGTTVTVSS
VL: QSALTQPASVSGSPGQSITISCTGTSSDVGGYDYVAWYQQHPGKVPKLMIYDVSERPSGVSNRFSGSKSGNTASLTISGLQAEDEADYYCSSYTSTTTLVVFGGGTKLSVL
B3 showed an EC50 in assay [9] of 3.92 nM.
